# Data published in US20250011363A1, “OPTIMIZED SHORTENED PEPTIDE THAT BINDS TO ACETYLCHOLINE RECEPTOR, AND USE THEREOF” (SKINMED CO., LTD., priority 2021, published 2025).
# Target: acetylcholine receptor
# Assay: SPR, AchR immobilised on CM5 chip, peptide 10 uM
row,Binder,Binding affinity (RU)
1,KRIEFR [6mer-1-1040],28 RU
2,RKHSHR [6mer-1-1004],41 RU
3,RKKPEK [6mer-1-1011],35 RU
4,KRPHKK [6mer-1-983],38 RU
5,RKEHGK [6mer-1-1041],23 RU
6,KRHWIR [6mer-1-1052],33 RU
7,RKDPHR [6mer-1-1046],38 RU
8,RKPWAR [6mer-1-1008],21 RU
9,RKYTPK [6mer-1-1053],27 RU
10,RKYCHR [6mer-1-1003],24 RU
11,KKHDIK [6mer-1-1021],41 RU
12,RRNTAK [6mer-1-1056],27 RU
13,RRAWVR [6mer-1-1012],35 RU
14,KKPWHK [6mer-1-1027],22 RU
15,RRKNNR [6mer-1-1037],36 RU
16,KRIHMK [6mer-1-1002],29 RU
17,KRCNDK [6mer-1-1055],40 RU
18,KRFAKR [6mer-1-1025],33 RU
19,KRKPVR [6mer-1-1057],43 RU
20,KRAHDK [6mer-1-993],26 RU
21,KREEWR [6mer-1-1015],26 RU
22,RKDTHK [6mer-1-1031],38 RU
23,RRFTER [6mer-1-990],40 RU
24,RRKKIR [6mer-1-1038],21 RU
25,KKMEAK [6mer-1-1020],38 RU

row,Binder,Binding affinity (RU)
1,RRTEFK [6mer-1-987],34 RU
2,RKAHDK [6mer-1-991],25 RU
3,KRIMHK [6mer-1-1023],39 RU
4,KRDAWR [6mer-1-1019],37 RU
5,RKPPDR [6mer-1-1005],26 RU
6,KKESDK [6mer-1-984],33 RU
7,RKKCER [6mer-1-1026],30 RU
8,KRATVR [6mer-1-989],27 RU
9,KRCHHR [6mer-1-995],33 RU
10,KRADIK [6mer-1-1039],40 RU
11,KKPKHK [6mer-1-1010],33 RU
12,KRFPWR [6mer-1-1058],21 RU
13,KKTAFK [6mer-1-1018],28 RU
14,RRCMMK [6mer-1-1048],36 RU
15,KKFCFR [6mer-1-1030],30 RU
16,RRCHHR [6mer-1-1035],34 RU
17,KKDKIK [6mer-1-1006],25 RU
18,KRHTHR [6mer-1-1016],21 RU
19,RKATDK [6mer-1-1047],30 RU
20,KRCPDR [6mer-1-982],35 RU
21,RRMKVK [6mer-1-1054],37 RU
22,KKITFR [6mer-1-1036],21 RU
23,KRAAHR [6mer-1-1043],30 RU
24,RKPTDR [6mer-1-1007],39 RU
25,KKDHKK [6mer-1-1049],31 RU

# Continued, values first:
row,Binding affinity (RU),Binder
1,21 RU,KRYNVR [6mer-1-1060]
2,36 RU,RKTEIR [6mer-1-1024]
3,41 RU,KRNPVK [6mer-1-998]
4,24 RU,RKATNR [6mer-1-999]
5,24 RU,KKHHIR [6mer-1-1044]
6,43 RU,KKKSFK [6mer-1-1051]
7,39 RU,RRPPWK [6mer-1-996]
8,24 RU,KKASDR [6mer-1-1034]
9,27 RU,KKTSMR [6mer-1-1032]
10,22 RU,RKDTVR [6mer-1-1022]
11,37 RU,KRANMK [6mer-1-1017]
12,40 RU,KKITAR [6mer-1-1042]
13,38 RU,KKMEDR [6mer-1-1050]
14,25 RU,KKNAWR [6mer-1-1014]
15,37 RU,KKHEFR [6mer-1-994]
16,28 RU,RRCTAK [6mer-1-992]
17,35 RU,KKPTFR [6mer-1-997]
18,27 RU,KKTPGR [6mer-1-1045]
19,22 RU,KKAEEK [6mer-1-986]
20,22 RU,KRKSER [6mer-1-985]
21,29 RU,KKTTNK [6mer-1-1013]
22,36 RU,RRHCWR [6mer-1-1028]
23,29 RU,RKMSKK [6mer-1-1009]
24,39 RU,RRETVK [6mer-1-1059]
25,40 RU,RRCMAK [6mer-1-1029]
26,30 RU,KRHMVK [6mer-1-1033]
27,24 RU,KRYPDR [6mer-1-988]
28,28 RU,RKMSHR [6mer-1-1000]
